Values of other authors in article PMC4426885.

How the values were obtained:
[1] = biological target: vinculin D1 (Homo sapiens) (UniProt P18206)
vinculin (Homo sapiens) = vinculin (Homo sapiens) (UniProt P18206)
[2] = biological target: vinculin tail (Homo sapiens) (UniProt P18206)

Kd [1] | Kd (vinculin (Homo sapiens)) | Kd [2] | Substance
2 nM | 2 nM |  | alpha-actinin peptide vinculin-binding site (from UniProt P12814)
 |  | < 1 nM | vinculin head (from UniProt P18206)
